The values that follow come from PMC5356532.

For experiment [1], the target named is Pyruvate kinase M2 (PKM2), endogenous in NIH-3T3 cells (mouse (endogenous in NIH-3T3)) (UniProt P52480). The experiment can be described thus: cross-linking.
The target of experiment [2] is Pyruvate kinase M2 (PKM2), endogenous in U251-iUS28 cells (human (endogenous in U251)) (UniProt P14618). The experiment can be described thus: cross-linking.

Chain of Pyruvate kinase M2 (PKM2), endogenous in NIH-3T3 cells, P52480 1-531 (enzyme; other documents disagree on this pair) (P52480 whole entry): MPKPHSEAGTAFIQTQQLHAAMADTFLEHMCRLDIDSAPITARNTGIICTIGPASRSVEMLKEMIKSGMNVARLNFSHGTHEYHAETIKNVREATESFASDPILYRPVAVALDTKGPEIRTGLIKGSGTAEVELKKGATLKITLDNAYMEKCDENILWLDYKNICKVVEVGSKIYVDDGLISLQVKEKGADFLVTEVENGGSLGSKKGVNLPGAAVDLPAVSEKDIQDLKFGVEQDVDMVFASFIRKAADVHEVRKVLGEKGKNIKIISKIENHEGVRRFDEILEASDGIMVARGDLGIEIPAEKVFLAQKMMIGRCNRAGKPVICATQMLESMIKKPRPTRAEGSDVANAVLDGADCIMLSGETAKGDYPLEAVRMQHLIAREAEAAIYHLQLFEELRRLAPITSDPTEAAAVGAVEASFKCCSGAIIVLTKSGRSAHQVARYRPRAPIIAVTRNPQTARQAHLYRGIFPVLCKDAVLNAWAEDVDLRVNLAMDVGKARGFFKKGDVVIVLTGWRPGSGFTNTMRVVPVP
Chain of Pyruvate kinase M2 (PKM2), endogenous in U251-iUS28 cells, P14618 1-531 (enzyme; other documents disagree on this pair) (P14618 whole entry): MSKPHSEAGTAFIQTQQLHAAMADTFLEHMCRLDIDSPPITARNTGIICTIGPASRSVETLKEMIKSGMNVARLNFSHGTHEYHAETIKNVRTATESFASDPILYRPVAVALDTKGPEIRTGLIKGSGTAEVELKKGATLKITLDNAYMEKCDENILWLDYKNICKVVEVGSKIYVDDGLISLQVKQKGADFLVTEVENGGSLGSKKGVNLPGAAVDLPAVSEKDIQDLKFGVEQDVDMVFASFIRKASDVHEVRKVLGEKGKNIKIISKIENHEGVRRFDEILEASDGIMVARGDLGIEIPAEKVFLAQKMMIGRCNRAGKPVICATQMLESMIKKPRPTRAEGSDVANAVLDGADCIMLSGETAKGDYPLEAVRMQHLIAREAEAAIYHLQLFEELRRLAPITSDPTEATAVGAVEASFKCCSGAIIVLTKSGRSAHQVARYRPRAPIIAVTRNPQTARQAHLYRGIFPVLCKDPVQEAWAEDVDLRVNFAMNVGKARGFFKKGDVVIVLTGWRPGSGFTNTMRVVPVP

For orientation: stoichiometry N means the number of molecules, sites or subunits per partner or assembly. For the substance “Pyruvate kinase M2 (PKM2), endogenous in NIH-3T3 cells, P52480 1-531 (enzyme; other documents disagree on this pair)”, the stoichiometry N in experiment [1] was found to be 2.

In turn, “Pyruvate kinase M2 (PKM2), endogenous in U251-iUS28 cells, P14618 1-531 (enzyme; other documents disagree on this pair)” yielded a stoichiometry N in experiment [2] of 2.
